Substitutions are numbered along the chain they refer to.
Tests used:
[1] = molecular target: T1, TDRD5 LOTUS domain 3 (L3) (Mus musculus, UniProt Q5VCS6 291-365); assay: ELISA
T1 sequence: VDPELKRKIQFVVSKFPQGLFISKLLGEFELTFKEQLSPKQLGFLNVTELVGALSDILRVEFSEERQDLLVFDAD

[2] = molecular target: T1, TDRD5 LOTUS domain 3 (L3); assay: pull-down, ELISA
[3] = molecular target: T2, TDRD5 LOTUS domain 1 (L1) (Mus musculus, UniProt Q5VCS6 7-80); assay: DRaCALA
T2 sequence: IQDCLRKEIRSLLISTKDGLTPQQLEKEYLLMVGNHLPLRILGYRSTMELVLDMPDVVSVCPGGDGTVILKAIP

Oskar LOTUS (eLOTUS) = molecular target: T3, Oskar LOTUS (eLOTUS) (Drosophila, UniProt P25158 139-241); assay: ELISA
T3 sequence: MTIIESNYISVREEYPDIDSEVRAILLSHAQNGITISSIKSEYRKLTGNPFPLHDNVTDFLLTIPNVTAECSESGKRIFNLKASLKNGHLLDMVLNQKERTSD

AT3G52980-LOTUS = molecular target: T4, AT3G52980-LOTUS (plant, UniProt Q9LF94 199-282); assay: ELISA
T4 sequence: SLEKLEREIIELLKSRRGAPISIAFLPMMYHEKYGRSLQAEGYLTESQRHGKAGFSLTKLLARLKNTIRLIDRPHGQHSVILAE

TDRD7 L3 = molecular target: T5, TDRD7 L3 (Mus musculus, UniProt Q8K1H1 325-394); assay: ELISA
T5 sequence: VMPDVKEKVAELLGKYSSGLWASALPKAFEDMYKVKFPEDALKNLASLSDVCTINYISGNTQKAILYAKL

Tejas LOTUS = molecular target: T6, Tejas LOTUS (Drosophila, UniProt A1Z9P1 6-79); assay: ELISA
T6 sequence: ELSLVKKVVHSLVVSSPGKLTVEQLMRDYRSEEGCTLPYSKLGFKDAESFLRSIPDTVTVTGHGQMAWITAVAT

human MARF1 L7 = molecular target: T7, human MARF1 L7 (Homo sapiens, UniProt Q9Y4F3 1411-1485); assay: ELISA
T7 sequence: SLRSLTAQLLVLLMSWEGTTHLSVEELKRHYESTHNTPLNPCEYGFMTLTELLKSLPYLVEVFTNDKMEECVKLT

TDRD7 L1 = molecular target: T8, TDRD7 L1 (Mus musculus, UniProt Q8K1H1 3-76); assay: ELISA
T8 sequence: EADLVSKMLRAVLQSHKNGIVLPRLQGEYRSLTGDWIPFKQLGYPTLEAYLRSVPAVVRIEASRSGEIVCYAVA

TDRD7 L2 = molecular target: T9, TDRD7 L2 (Mus musculus, UniProt Q8K1H1 222-291); assay: ELISA
T9 sequence: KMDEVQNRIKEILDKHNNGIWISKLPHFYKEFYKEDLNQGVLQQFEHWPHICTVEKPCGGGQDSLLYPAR

human MARF1 L1 = molecular target: T10, human MARF1 L1 (Homo sapiens, UniProt Q9Y4F3 875-949); assay: ELISA
T10 sequence: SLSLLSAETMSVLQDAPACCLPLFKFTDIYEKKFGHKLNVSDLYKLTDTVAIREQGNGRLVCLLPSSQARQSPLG

human TDRD7 L1 = human TDRD7 L1 (Homo sapiens, UniProt Q8NHU6 3-76); assay: ELISA
Chain of human TDRD7 L1 (Q8NHU6 3-76): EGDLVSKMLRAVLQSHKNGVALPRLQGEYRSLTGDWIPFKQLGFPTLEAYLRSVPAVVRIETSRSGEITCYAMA

TP0894-LOTUS = molecular target: T11, TP0894-LOTUS (Treponema pallidum subsp. pallidum str. …, UniProt O83864 178-253); assay: ELISA
T11 sequence: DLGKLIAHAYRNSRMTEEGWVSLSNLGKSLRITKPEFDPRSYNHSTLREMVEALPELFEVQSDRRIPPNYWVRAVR

human TDRD5 L1 = molecular target: T12, human TDRD5 L1 (Homo sapiens, UniProt Q8NAT2 7-80); assay: ELISA
T12 sequence: T2 sequence with D3E, T21S, Q24E, S59R, G64A, D65G

[4] = molecular target: T2, TDRD5 LOTUS domain 1 (L1); assay: pull-down, ELISA
[5] = molecular target: T13, TDRD5 LOTUS domain 2 (L2) (Mus musculus, UniProt Q5VCS6 122-197); assay: pull-down, ELISA
T13 sequence: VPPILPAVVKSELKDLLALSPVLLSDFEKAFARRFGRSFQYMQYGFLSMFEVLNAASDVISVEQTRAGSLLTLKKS

[6] = molecular target: T2, TDRD5 LOTUS domain 1 (L1); assay: ELISA

GGGGGGGGGGGGGGGGGGG (ssRNA) [Poly(G)]
binding result [1]: no binding

GGUGGGCAGGGGAGUGGGGGUGGG (structured_RNA) [Cluster G4-1 RNA]
binding result [2]: no binding
binding result [3]: binds
binding result (Oskar LOTUS (eLOTUS)): binds
binding result (AT3G52980-LOTUS): binds
binding result (TDRD7 L3): binds
binding result (Tejas LOTUS): binds
binding result (human MARF1 L7): binds
binding result (TDRD7 L1): binds
binding result (TDRD7 L2): binds
binding result (human MARF1 L1): binds
binding result (human TDRD7 L1): binds
binding result (TP0894-LOTUS): binds
binding result (human TDRD5 L1): binds

CCCCCCCCCCCCCCCCCCC (ssRNA) [Poly(C)]
binding result [4]: no binding
binding result [2]: no binding
binding result [5]: no binding

TTAGGGTTAGGGTTAGGGTTAGGG (structured_DNA) [TERRA G4 DNA]
binding result [6]: no binding

Source: article PMC7498356
